Assays:
Assay in all cases: cytokine release
[1] = target: T1, PLAC1 peptide on HLA-A*02:01 (human)
T1 peptide: SIDWFMVTV

[2] = target: T2, PLAC1 peptide on HLA-A*02:01 (human)
T2 peptide: VLCSIDWFM

[3] = target: T3, PLAC1 peptide on HLA-A*02:01 (human)
T3 peptide: CSIDWFMVTVHP

Measured: binding result

B1: TCRCD8-mPL#8 (TCR, V domains shown)
Valpha: TQTVSQSDAHVTVFEGDSVELRCNYSYGGSIYLSWYIQHHGRGLQFLLKYYSGNPVVQGVNGFKAEFSKSDSSFHLRKASVHWSDSAVYFCAVSAGGYKVVFGSGTRLLVSP
Vbeta: NTKITQSPRYLILGRANKSLECEQHLGHNAMYWYKQSAEKPPELMFLYNLKQLIRNETVPSRFIPECPDSSKLLLHISAVDPEDSAVYFCASSPGGAEQFFGPGTRLTVL
recognises: all assays above

B2: TCRCD8-mPL#14 (TCR, V domains shown)
Valpha: TQTVSQSDAHVTVFEGDSVELRCNYSYGGSIYLSWYIQHHGHGLQFLLKYYSGNPVVQGVNGFEAEFSKSDSSFHLRKASVHWSDSAVYFCAVSSGGYKVVFGSGTRLLVSP
Vbeta: NTKITQSPRYLILGRANKSLECEQHLGHNAMYWYKQSAEKPPELMFLYNLKQLIRNETVPSRFIPECPDSSKLLLHISAVDPEDSAVYFCASSQGGTEVFFGKGTRLTVV
recognises: all assays above

B3: TCRCD8-mPL#19 (TCR, V domains shown)
Valpha: GDSVIQMQGQVTLSENDFLFINCTYSTTGYPTLFWYVQYSGEGPQLLLQVTTANNKGSSRGFEATYDKGTTSFHLQKTSVQEIDSAVYYCAMSDASGSWQLIFGSGTQLTVMP
Vbeta: EAAVTQSPRSKVAVTGGKVTLSCHQTNNHDYMYWYRQDTGHGLRLIHYSYVADSTEKGDIPDGYKASRPSQENFSLILELASLSQTAVYFCASSPDRPSYNSPLYFAAGTRLTVT
recognises: all assays above

B4: TCRCD8-mPL#17 (TCR, V domains shown)
Valpha: QQQVRQSPQSLTVWEGETAILNCSYEDSTFNYFPWYQQFPGEGPALLISIRSVSDKKEDGRFTIFFNKREKKLSLHITDSQPGDSATYFCAPNNRIFFGDGTQLVVKP
Vbeta: EAAVTQSPRNKVAVTGGKVTLSCNQTNNHNNMYWYRQDTGHGLRLIHYSYGAGSTEKGDIPDGYKASRPSQENFSLILELATPSQTSVYFCASLGYNYAEQFFGPGTRLTVL
recognises: all assays above

B5: TCRCD8-mPL#2 (TCR, V domains shown)
Valpha: GDSVTQTEGQVTVSESKSLIINCTYSATSIGYPNLFWYVRYPGEGLQLLLKVITAGQKGSSRGFEATYNKEATSFHLQKASVQESDSAVYYCALSDSNYQLIWGSGTKLIIKP
Vbeta: DPKIIQKPKYLVAVTGSEKILICEQYLGHNAMYWYRQSAKKPLEFMFSYSYQKLMDNQTASSRFQPQSSKKNHLDLQITALKPDDSATYFCASSPDNSGNTLYFGEGSRLIVV
recognises: all assays above

B6: TCRCD8-mPL#11 (TCR, V domains shown)
Valpha: GDSVTQTEGPVTVSESESLIINCTYSATSIAYPNLFWYVRYPGEGLQLLLKVITAGQKGSSRGFEATYNKETTSFHLQKASVQESDSAVYYCALGLGYKLTFGTGTSLLVDP
Vbeta: DPKIIQKPKYLVAVTGSEKILICEQYLGHNAMYWYRQSAKKPLEFMFSYSYQKLMDNQTASSRFQPQSSKKNHLDLQITALKPDDSATYFCASSGDNSGNTLYFGEGSRLIVV
recognises: all assays above

B7: TCRCD8-mPL#12 (TCR, V domains shown)
Valpha: GDQVEQSPSALSLHEGTGSALRCNFTTTMRAVQWFQQNSRGSLINLFYLASGTKENGRLKSTFNSKESYSTLHIRDAQLEDSGTYFCAAVNTNTGKLTFGDGTVLTVKP
Vbeta: SVLLYQKPNRDICQSGTSLKIQCVADSQVVSMFWYQQFQEQSLMLMATANEGSEATYESGFTKDKFPISRPNLTFSTLTVNNARPGDSSIYFCSSRTPNTGQLYFGEGSKLTVL
recognises: all assays above

From patent publication US20190060430A1 (published 2019)
